{
  "source": "paper PMC3218054",
  "about": "“Characterisation of the Interaction of the C-Terminus of the Dopamine D2 Receptor with Neuronal Calcium Sensor-1” (PLoS ONE, 2011)",
  "origin": "cited, not measured here",
  "molecules": {"B1": {"name": "D3 receptor: dopamine D3 receptor (PDB Accession 3PBL), docked onto NCS-1 (protein, UniProt P35462 1-400, looked up)", "D(3) dopamine receptor": "MASLSQLSGHLNYTCGAENSTGASQARPHAYYALSYCALILAIVFGNGLVCMAVLKERALQTTTNYLVVSLAVADLLVATLVMPWVVYLEVTGGVWNFSRICCDVFVTLDVMMCTASILNLCAISIDRYTAVVMPVHYQHGTGQSSCRRVALMITAVWVLAFAVSCPLLFGFNTTGDPTVCSISNPDFVIYSSVVSFYLPFGVTVLVYARIYVVLKQRRRKRILTRQNSQCNSVRPGFPQQTLSPDPAHLELKRYYSICQDTALGGPGFQERGGELKREEKTRNSLSPTIAPKLSLEVRKLSNGRLSTSLKLGPLQPRGVPLREKKATQMVAIVLGAFIVCWLPFFLTHVLNTHCQTCHVSPELYSATTWLGYVNSALNPVIYTTFNIEFRKAFLKILSC"}},
  "tested_on": "NCS-1",
  "settings": "D3 receptor",
  "from_the_text": "Ultimately, it would be important to understand how NCS-1 interacts with the intact receptor. We, therefore, constructed a model of the NCS-1-D3 receptor complex using the AIR derived from the D2SR peptide-NCS-1 chemical mapping data, and taking into consideration that many of the hydrophobic residues at the C-terminus of D3 receptor are involved in intramolecular interactions with helix I of the receptor [45]. HADDOCK docking produ ... || Biophysical analysis of NCS-1 was consistent with the protein being monomeric in the presence or absence of Ca ^2+.",
  "note": "“Also recorded” adds a separate entry of the source.",
  "data": [
    {"molecule": "B1", "values": [
      {"measurement": "ability to bind NCS-1", "value": "shown to bind to the dopamine D3 receptor and to regulate its internalisation; also recorded: can also bind to NCS-1"}
    ]}
  ]
}
